Columns and labels:
Experiment in all cases: flow cytometry on transiently transfected cells
[1] = biological target: T1, DcR1 on transiently transfected cells (UniProt O14798 26-236, limits assumed)
T1 construct: whole, on cells
T1 sequence (looked up): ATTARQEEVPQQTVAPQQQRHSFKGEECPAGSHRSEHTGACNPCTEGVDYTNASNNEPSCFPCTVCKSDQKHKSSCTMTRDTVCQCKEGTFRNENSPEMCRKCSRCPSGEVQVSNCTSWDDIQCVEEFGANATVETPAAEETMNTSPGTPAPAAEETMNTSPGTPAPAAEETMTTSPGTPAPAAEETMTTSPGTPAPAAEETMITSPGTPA
Procedure: (§1) One million cells, in 0.1 ml of FACS buffer (PBS, 0.1% BSA, 0.1% NaN₃), were incubated with 0.1-1 microgram of protein or antibody at RT for 15 min. The cells were washed with 3 ml of FACS buffer, reacted with biotinylated primary antibody, and stained with PE-conjugated secondary antibody at RT for 15 min. Cells were then washed again, resuspended in 0.5 microgram/ml of propidium iodide, and live cells were gated and analyzed on a FACScan using the CellQuest software (BD Biosciences).

[2] = biological target: T2, TNFR2 on transiently transfected cells (human, UniProt P20333 23-461)
T2 sequence: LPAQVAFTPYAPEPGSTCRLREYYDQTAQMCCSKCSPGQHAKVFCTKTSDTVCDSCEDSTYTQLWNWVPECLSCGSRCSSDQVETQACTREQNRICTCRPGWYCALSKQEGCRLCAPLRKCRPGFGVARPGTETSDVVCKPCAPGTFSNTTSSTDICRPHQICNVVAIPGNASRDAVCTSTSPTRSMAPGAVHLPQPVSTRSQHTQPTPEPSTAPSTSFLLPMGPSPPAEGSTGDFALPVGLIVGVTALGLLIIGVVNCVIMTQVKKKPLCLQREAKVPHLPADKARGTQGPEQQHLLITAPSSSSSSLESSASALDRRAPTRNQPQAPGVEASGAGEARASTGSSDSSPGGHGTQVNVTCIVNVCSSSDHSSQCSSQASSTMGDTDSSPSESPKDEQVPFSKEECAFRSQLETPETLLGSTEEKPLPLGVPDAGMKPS
Procedure: as §1

[3] = biological target: T3, LTβR on transiently transfected cells (UniProt P36941 31-435, limits assumed)
T3 construct: whole, on cells
T3 sequence (P36941 31-435 limits assumed): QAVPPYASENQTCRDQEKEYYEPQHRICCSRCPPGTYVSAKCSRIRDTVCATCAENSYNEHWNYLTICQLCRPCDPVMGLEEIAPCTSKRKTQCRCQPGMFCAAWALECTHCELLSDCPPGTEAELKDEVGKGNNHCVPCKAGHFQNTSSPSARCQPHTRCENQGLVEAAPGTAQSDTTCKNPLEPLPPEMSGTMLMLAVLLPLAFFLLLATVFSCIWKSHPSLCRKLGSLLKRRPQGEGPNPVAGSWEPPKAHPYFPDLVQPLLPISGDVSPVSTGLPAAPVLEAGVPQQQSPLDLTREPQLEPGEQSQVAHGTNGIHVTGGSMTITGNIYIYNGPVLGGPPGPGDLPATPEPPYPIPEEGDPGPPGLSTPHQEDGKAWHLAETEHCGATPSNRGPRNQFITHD
Procedure: as §1

[4] = biological target: T4, AITR on transiently transfected cells (UniProt Q9Y5U5 26-241, limits assumed)
T4 construct: whole, on cells
T4 sequence (looked up): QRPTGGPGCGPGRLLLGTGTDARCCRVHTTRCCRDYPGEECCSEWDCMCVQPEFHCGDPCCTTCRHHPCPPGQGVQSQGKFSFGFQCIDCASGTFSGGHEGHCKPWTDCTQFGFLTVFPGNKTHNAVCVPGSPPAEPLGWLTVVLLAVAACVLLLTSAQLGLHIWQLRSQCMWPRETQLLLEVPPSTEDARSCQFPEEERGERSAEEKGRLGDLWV
Procedure: as §1

[5] = biological target: T5, DR5 on transiently transfected cells (UniProt O14763 56-440, limits assumed)
T5 construct: whole, on cells
Procedure: as §1

[6] = biological target: T6, DcR2 on transiently transfected cells (UniProt Q9UBN6 56-386, limits assumed)
T6 construct: whole, on cells
T6 sequence (looked up): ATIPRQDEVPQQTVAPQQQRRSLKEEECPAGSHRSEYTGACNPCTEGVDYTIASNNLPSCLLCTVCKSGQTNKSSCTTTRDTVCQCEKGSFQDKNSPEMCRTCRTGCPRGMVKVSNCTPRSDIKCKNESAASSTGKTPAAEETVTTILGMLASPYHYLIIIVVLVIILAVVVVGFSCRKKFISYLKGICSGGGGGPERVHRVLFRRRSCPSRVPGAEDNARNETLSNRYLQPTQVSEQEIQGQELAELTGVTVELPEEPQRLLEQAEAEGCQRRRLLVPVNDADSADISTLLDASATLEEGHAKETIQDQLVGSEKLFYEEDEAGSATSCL
Procedure: as §1

[7] = biological target: T7, HveA on transiently transfected cells (Homo sapiens (Human), UniProt Q92956 39-283)
T7 construct: also called HVEM/TR2
T7 sequence: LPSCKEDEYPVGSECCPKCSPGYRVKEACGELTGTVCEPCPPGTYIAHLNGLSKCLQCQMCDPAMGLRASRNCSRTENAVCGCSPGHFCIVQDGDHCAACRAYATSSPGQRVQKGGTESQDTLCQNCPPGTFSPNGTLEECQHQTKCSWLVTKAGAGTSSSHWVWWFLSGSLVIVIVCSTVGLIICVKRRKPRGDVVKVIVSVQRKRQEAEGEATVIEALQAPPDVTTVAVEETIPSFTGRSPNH
Procedure: as §1

[8] = biological target: T8, DR6 on transiently transfected cells (UniProt O75509 42-655, limits assumed)
T8 construct: whole, on cells
T8 sequence (looked up): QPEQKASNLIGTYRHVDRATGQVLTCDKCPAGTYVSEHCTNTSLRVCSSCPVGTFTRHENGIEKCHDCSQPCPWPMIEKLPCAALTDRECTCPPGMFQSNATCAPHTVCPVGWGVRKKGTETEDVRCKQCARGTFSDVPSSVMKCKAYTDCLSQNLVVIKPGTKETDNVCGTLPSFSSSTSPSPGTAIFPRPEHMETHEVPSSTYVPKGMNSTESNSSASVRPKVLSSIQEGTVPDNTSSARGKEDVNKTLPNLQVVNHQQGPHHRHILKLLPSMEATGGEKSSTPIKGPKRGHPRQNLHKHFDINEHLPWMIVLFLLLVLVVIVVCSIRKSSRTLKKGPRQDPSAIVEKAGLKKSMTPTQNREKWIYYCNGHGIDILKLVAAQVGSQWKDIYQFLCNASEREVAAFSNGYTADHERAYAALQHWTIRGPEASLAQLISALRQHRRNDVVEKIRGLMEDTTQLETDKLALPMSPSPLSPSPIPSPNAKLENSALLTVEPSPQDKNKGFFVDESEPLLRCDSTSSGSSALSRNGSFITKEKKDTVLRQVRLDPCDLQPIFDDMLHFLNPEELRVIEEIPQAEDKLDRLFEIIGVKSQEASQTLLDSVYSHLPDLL
Procedure: as §1

[9] = biological target: T9, CD27 on transiently transfected cells (UniProt P26842 20-260, limits assumed)
T9 construct: whole, on cells
T9 sequence (looked up): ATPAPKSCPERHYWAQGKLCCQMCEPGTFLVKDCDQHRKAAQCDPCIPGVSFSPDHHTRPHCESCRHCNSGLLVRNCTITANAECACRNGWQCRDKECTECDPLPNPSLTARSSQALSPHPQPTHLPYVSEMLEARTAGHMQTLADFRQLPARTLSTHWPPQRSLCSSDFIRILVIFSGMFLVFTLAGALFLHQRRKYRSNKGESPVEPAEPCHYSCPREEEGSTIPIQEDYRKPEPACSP
Procedure: as §1

Measured: binding result

B1: FLAG-tagged soluble TNF-gamma-beta (aa 72-251) (ligand, human)
chain: DYKDDDDKLKGQEFAPSHQQVYAPLRADGDKPRAHLTVVRQTPTQHFKNQFPALHWEHELGLAFTKNRMNYTNKFLLIPESGDYFIYSQVTFRGMTSECSEIRQAGRPNKPDSITVVITKVTDSYPEPTQLLMGTKSVCEVGSNWFQPIYLGAMFSLQEGDKLMVNVSDISLVDYTKEDKTFFGAFLL
notes: also called FLAG-TNF-gamma-beta; FLAG-TL1β
no binding: all assays above
